# Test results published in patent US20030026803A1 (published 2003).
# T1: soluble rat CD4 (rat, UniProt P05540 28-394, limits assumed)
# T1 sequence (looked up): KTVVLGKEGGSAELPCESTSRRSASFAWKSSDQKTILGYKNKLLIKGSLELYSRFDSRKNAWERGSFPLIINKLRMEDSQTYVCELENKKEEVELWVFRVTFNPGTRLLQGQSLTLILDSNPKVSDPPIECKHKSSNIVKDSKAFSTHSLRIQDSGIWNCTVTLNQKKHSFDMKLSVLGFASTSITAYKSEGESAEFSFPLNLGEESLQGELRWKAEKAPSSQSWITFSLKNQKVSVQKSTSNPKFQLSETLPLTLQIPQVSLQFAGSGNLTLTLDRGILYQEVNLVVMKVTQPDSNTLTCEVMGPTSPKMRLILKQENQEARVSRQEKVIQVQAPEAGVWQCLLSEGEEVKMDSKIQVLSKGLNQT
# Assays:
# soluble rat CD4 = target: T1, soluble rat CD4; assay: BIAcore, 25° C; soluble rat CD4 injected over V-SIRP-CD4d3+4 flowcell and control flowcell
# Procedure: FIG. 6. The NH2-terminal V domain of SIRP binds CD47. Soluble rat CD4 and hCD47-CD4d3+4 were injected into flowcells with immobilised V-SIRP-Cd4d3+4 (solid line) or control rat CD4 (dashed line).
# (§1) BIAcore analysis was carried out using a BIAcore™ 2000 biosensor instrument (Biacore AB) as previously described (Brown et al., (1998) J. Exp. Med. 188:2083-90, van der Merwe, et al., (1994) Biochemistry 33:101489-60) using CM5 research grade chips. […] For equilibrium binding increasing and decreasing concentrations of monomeric hCD47-CD4d3+4 were passed over hSIRP-Fc (6500 RU). For kinetic measurements hCD47-CD4d3+4 (18.30 μM) was passed over hSIRP-Fc immobilised at 6500 RU and 3000 RU and a control, CTLA4-Fc (6300 RU). CD47mAb blocking and V-SIRP-CD4d3+4 binding experiments were carried out at 10 and 5 μl/min respectively at 25° C.
# To localise the CD47 binding site on SIRP a construct containing only the NH₂-terminal V-like domain of hSIRP in frame with CD4d3+4 was made. V-SIRP-CD4d3+4 was immobilised in one flowcell via a CD4 mAb (OX68). The free OX68 in this flowcell and all the OX68 in the control flowcell was blocked with soluble rat CD4. Blocking was verified by repeating the injection of soluble rat CD4 (FIG. 6). Soluble hCD47-CD4d3+4 was then injected over both the flowcells. […]
# [1] = target: T2, hSIRP-Fc (extracellular region of human SIRPα fused to the Fc region of human IgG) (human, UniProt P78324 31-373); assay: BIAcore equilibrium binding at 37° C, non linear curve fitting of the Langmuir isotherm; hSIRP-Fc immobilised (6525 RU), control subtracted
# T2 construct: extracellular domain; also called human SIRP-Fc; dimeric hSIRP-Fc; not shown: human IgG Fc from vector pIg PLUS (R&D Systems)
# Procedure: (§2) FIG. 5. Affinity and dissociation rate of soluble human CD47-CD4d3+4 binding to human SIRP-Fc. (A) Soluble monomeric hCD47-CD4d3+4 was injected at the indicated concentrations in 1 μM through flowcells immobilised hSIRP-Fc (6525 RU) (solid line), or as a negative control CTLA-4-Fc (6290 RU) (dotted line) at 37° C. (B) the difference between the response between the response at equilibrium in the hSIRP-Fc flowcell and the control flow cell is plotted against the hCD47-CD4d3+4 concentration. A kd=8.5 μM and maximal binding of 1400 RU were calculated by non linear curve fitting of the Langmuir isotherm (line) to data (circles) from A with negative control subtracted. […] (C) Soluble hCD47 (18.3 μM) was injected over immobilised hSIRP-Fc immobilised at high (6500 RU) (filled circles) and low (3000) levels (filled up triangles), and hCTLA-4-Fc (6290 RU) (filled down triangles). Values for koff=1.6 s⁻¹ for hSIRP-Fc high, 2.1 s⁻¹ hSIRP-Fc low and 7.0 s⁻¹ for hCTLA-4-Fc were calculated by exponential decay curve fitting (line) to dissociation data (symbols).
# (§3) BIAcore analysis was carried out using a BIAcore™ 2000 biosensor instrument (Biacore AB) as previously described (Brown et al., (1998) J. Exp. Med. 188:2083-90, van der Merwe, et al., (1994) Biochemistry 33:101489-60) using CM5 research grade chips. […]
# [2] = target: T2, hSIRP-Fc (extracellular region of human …); assay: BIAcore, 37° C; apparent rate constant, hSIRP-Fc at the higher level
# Procedure: (§4) (C) Soluble hCD47 (18.3 μM) was injected over immobilised hSIRP-Fc immobilised at high (6500 RU) (filled circles) and low (3000) levels (filled up triangles), and hCTLA-4-Fc (6290 RU) (filled down triangles). Values for koff=1.6 s⁻¹ for hSIRP-Fc high, 2.1 s⁻¹ hSIRP-Fc low and 7.0 s⁻¹ for hCTLA-4-Fc were calculated by exponential decay curve fitting (line) to dissociation data (symbols).
# as §1
# (§5) To measure the affinity of the interaction hSIRP-Fc was directly immobilised and monomeric hCD47-CD4d3+4 passed over it. As shown in FIG. 5A hCD47-CD4d3+4 bound specifically to hSIRP-Fc in a dose dependent manner. […] The apparent rate constants were calculated as koff=1.3 s⁻¹ for the higher level of hSIRP-Fc and koff=2.1 s⁻¹ for the lower level (FIG. 5C). […]
# [3] = target: T2, hSIRP-Fc (extracellular region of human …); assay: BIAcore, 37° C; 18.3 µM hCD47-CD4d3+4 over hSIRP-Fc at 6500 RU, exponential decay fitting
# Procedure: as §2, §3
# [4] = target: T2, hSIRP-Fc (extracellular region of human …); assay: BIAcore equilibrium binding at 37° C, Scatchard analysis
# Procedure: as §4, §1, §5
# [5] = target: T2, hSIRP-Fc (extracellular region of human …); assay: BIAcore, 37° C; lower bound because of rebinding
# Procedure: as §4, §1, §5
# [6] = target: T2, hSIRP-Fc (extracellular region of human …); assay: BIAcore, 37° C; 18.3 µM hCD47-CD4d3+4 over hSIRP-Fc at 3000 RU, exponential decay fitting
# Procedure: as §2, §3
binding result (soluble rat CD4),Kd [1] [µM],koff [2] [s⁻¹],koff [3] [s⁻¹],Kd [4] [µM],koff [5] [s⁻¹],koff [6] [s⁻¹],Binder
no binding,,,,,,,"V-SIRP-CD4d3+4 (NH2-terminal V-like domain of hSIRP in frame with rat CD4 domains 3+4) (receptor, human;rat, UniProt P78324 31-148, looked up, domain: NH2-terminal V-like domain;domain: CD4 domains 3+4; Captured on the chip via OX68; also called single SIRP V domain CD4d3+4 fusion protein) EEELQVIQPDKSVLVAAGETATLRCTATSLIPVGPIQWFRGAGPGRELIYNQKEGHFPRVTTVSDLTKRNNMDFSIRIGNITPADAGTYYCVKFRKGSPDDVEFKSGAGTELSVRAKPSTSITAYKSEGESAEFSFPLNLGEESLQGELRWKAEKAPSSQSWITFSLKNQKVSVQKSTSNPKFQLSETLPLTLQIPQVSLQFAGSGNLTLTLDRGILYQEVNLVVMKVTQPDSNTLTCEVMGPTSPKMRLILKQENQEARVSRQEKVIQVQAPEAGVWQCLLSEGEEVKMDSKIQVLSKGLN"
,8.5,1.3,1.6,7.6,≥ 2.1,2.1,"hCD47-CD4d3+4 (single extracellular IgSF domain of human CD47 fused to rat CD4 domains 3+4) (ligand, human;rat, UniProt Q08722 19-136, looked up, extracellular domain;domain: CD4 domains 3+4; Used as a monomer in solution, or captured via OX68; also called soluble human CD47-CD4d3+4; soluble hCD47; not shown: biotinylation peptide of the CD4d3+4-biotin vector) QLLFNKTKSVEFTFCNDTVVIPCFVTNMEAQNTTEVYVKWKFKGRDIYTFDGALNKSTVPTDFSSAKIEVSQLLKGDASLKMDKSDAVSHTGNYTCEVTELTREGETIIELKYRVVSWSTSITAYKSEGESAEFSFPLNLGEESLQGELRWKAEKAPSSQSWITFSLKNQKVSVQKSTSNPKFQLSETLPLTLQIPQVSLQFAGSGNLTLTLDRGILYQEVNLVVMKVTQPDSNTLTCEVMGPTSPKMRLILKQENQEARVSRQEKVIQVQAPEAGVWQCLLSEGEEVKMDSKIQVLSKGLN"
